Laboratory results published in the supplement of paper PMC10724198.
± gives the standard deviation of the averaged measurements.

Test system: Saccharomyces cerevisiae
Test: protein stability index of tFT-peptide fusion (C-terminal peptide) (PSI (0-1 scale)); higher = more stable (slower turnover)
Conditions: temperature: 30 C
Experimental: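 MPS profiling in S. cerevisiae of the yeast C-terminome library: the last 12 aa of each annotated ORF are fused to the C-terminus of a sfGFP-mCherry timer, after a GGGS linker. Cells are FACS-sorted into 8 mCherry/sfGFP bins and deep-sequenced. PSI runs from 0 (unstable) to 1 (stable); wild type and das1Δ backgrounds, two technical replicates each.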

[1] = genetic background: das1 deletion

| Sequence | protein stability index [1] | protein stability index (genetic background: wild type) |
| --- | --- | --- |
| KHIDYRHAPGNI [RRN10 C-terminal 12 aa] | 0.6875 ± 0.0066 | 0.69587 ± 0.00057 |
| AGFGCLDSIILY [GSH2 C-terminal 12 aa] | 0.7068 ± 0.0036 | 0.732 ± 0.038 |
| EHKLGNTKYFED [ARP5 C-terminal 12 aa] | 0.693 ± 0.01 | 0.687 ± 0.023 |
| RWHIQRITSPLS [STP22 C-terminal 12 aa] | 0.74 ± 0.048 | 0.719 ± 0.028 |
| SQIRTPLVMLLM [YOR318C C-terminal 12 aa] | 0.651 ± 0.025 | 0.454 ± 0.0056 |
| YLGAKTGSLIDF [KAR5 C-terminal 12 aa] | 0.702 ± 0.015 | 0.721 ± 0.026 |
| SRVVLSQGDSDD [TOF1 C-terminal 12 aa] | 0.68424 ± 0.00057 | 0.662 ± 0.026 |
| IKRRSNVGVVML [NMT1 C-terminal 12 aa] | 0.6647 ± 0.003 | 0.6363 ± 0.0032 |
| YMIRFIANGYYY [SWR1 C-terminal 12 aa] | 0.613 ± 0.014 | 0.614 ± 0.009 |
| SRRFYRKIDHLA [YLR400W C-terminal 12 aa] | 0.699 ± 0.02 | 0.507 ± 0.018 |
| ESSKDVKRNNKD [SDH7 C-terminal 12 aa] | 0.691 ± 0.012 | 0.702 ± 0.03 |
| RVGQTNSPSDSQ [DFM1 C-terminal 12 aa] | 0.706 ± 0.0087 | 0.695 ± 0.049 |
| WARRSFSSYDLC [GID11 C-terminal 12 aa] | 0.7053 ± 0.0036 | 0.694 ± 0.011 |
| INNTDITLYNDV [YPL068C C-terminal 12 aa] | 0.707 ± 0.019 | 0.696 ± 0.056 |
| RELLKSLVLSHR [RSM23 C-terminal 12 aa] | 0.703 ± 0.0085 | 0.683 ± 0.019 |
| GNNNCPLHMDYI [STE5 C-terminal 12 aa] | 0.7274 ± 0.0071 | 0.723 ± 0.015 |
| IAKRFAKALGRS [ARN2 C-terminal 12 aa] | 0.711 ± 0.0084 | 0.695 ± 0.016 |
| DTVLRKFADYKI [MPS1 C-terminal 12 aa] | 0.7043 ± 0.0052 | 0.679 ± 0.032 |
| YAGIPENKIIGV [ARG56 C-terminal 12 aa] | 0.703 ± 0.048 | 0.702 ± 0.021 |
| WRFLGIVKSPNT [YDR510C-A C-terminal 12 aa] | 0.6815 ± 0.0017 | 0.693 ± 0.013 |
| WNCFLSMRNASK [YOR292C C-terminal 12 aa] | 0.693 ± 0.012 | 0.72 ± 0.028 |

| Sequence | protein stability index [1] | protein stability index (genetic background: wild type) |
| --- | --- | --- |
| FIRFAINIHTFI [YJL009W C-terminal 12 aa] | 0.46 ± 0.0057 | 0.377 ± 0.011 |
| NWSNQQINVQSS [PHM8 C-terminal 12 aa] | 0.7172 ± 0.0032 | 0.674 ± 0.018 |
| EFIFRESRKHNV [ERP3 C-terminal 12 aa] | 0.728 ± 0.058 | 0.71 ± 0.061 |
| LEEPYKPQRQRC [YPL088W C-terminal 12 aa] | 0.6798 ± 0.0049 | 0.718 ± 0.0087 |
| KQNIPRKPNVDI [BNS1 C-terminal 12 aa] | 0.6875 ± 0.0057 | 0.677 ± 0.018 |
| ERNPSQRPQRRY [RPS10B C-terminal 12 aa] | 0.686 ± 0.0083 | 0.679 ± 0.066 |
| LIGFGNQVSKAL [BUD25 C-terminal 12 aa] | 0.703 ± 0.03 | 0.723 ± 0.027 |
| EEQINGKRKRKD [YJR107C-A C-terminal 12 aa] | 0.672 ± 0.0096 | 0.674 ± 0.022 |
| SHYHMWPIKRII [YMR082C C-terminal 12 aa] | 0.6853 ± 0.0064 | 0.567 ± 0.011 |
| KALNEIFMITND [PXR1 C-terminal 12 aa] | 0.723 ± 0.013 | 0.763 ± 0.033 |
| SQDDSILSSDPF [NIS1 C-terminal 12 aa] | 0.715 ± 0.015 | 0.666 ± 0.014 |
| DAVAEEVKKILA [LEU2 C-terminal 12 aa] | 0.689 ± 0.018 | 0.68 ± 0.0084 |
| SEINDDFHQWAQ [DEP1 C-terminal 12 aa] | 0.727 ± 0.021 | 0.698 ± 0.0071 |
| KSAKATKASQEL [HTA1 C-terminal 12 aa] | 0.691 ± 0.011 | 0.675 ± 0.045 |
| DEDLWEEQEVCP [YGR017W C-terminal 12 aa] | 0.702 ± 0.0037 | 0.709 ± 0.011 |
| HETFDFRNLKLR [YER121W C-terminal 12 aa] | 0.701 ± 0.043 | 0.698 ± 0.024 |
| KNEDSEVEDDLI [CUS2 C-terminal 12 aa] | 0.703 ± 0.042 | 0.67 ± 0.0098 |
| SAQDSDIDLQDA [MCM7 C-terminal 12 aa] | 0.695 ± 0.0088 | 0.682 ± 0.031 |
| YCLAGVLCVFCV [YPR064W C-terminal 12 aa] | 0.431 ± 0.013 | 0.433 ± 0.0085 |
| EFSTLFDDYKDN [YRR1 C-terminal 12 aa] | 0.7429 ± 0.0055 | 0.767 ± 0.022 |
| YGISSSVLKGST [PHO87 C-terminal 12 aa] | 0.7153 ± 0.0032 | 0.676 ± 0.009 |

| Sequence | protein stability index [1] | protein stability index (genetic background: wild type) |
| --- | --- | --- |
| EEDEEDEENEEQ [UBX2 C-terminal 12 aa] | 0.716 ± 0.016 | 0.693 ± 0.043 |
| RSRSINGDWRKD [PAN5 C-terminal 12 aa] | 0.6835 ± 0.0046 | 0.6967 ± 0.0028 |
| IDSIDDLVDSDT [NPP1 C-terminal 12 aa] | 0.6907 ± 0.0066 | 0.685 ± 0.015 |
| GFQTGSAKATSA [RPL37B C-terminal 12 aa] | 0.703 ± 0.02 | 0.697 ± 0.019 |
| SYEIVKNGHKNS [APC2 C-terminal 12 aa] | 0.6772 ± 0.0007 | 0.687 ± 0.018 |
| IYKEKYMKQGPK [DSF2 C-terminal 12 aa] | 0.701 ± 0.071 | 0.701 ± 0.084 |
| LGMINTVVSLDR [YBR221W-A C-terminal 12 aa] | 0.691 ± 0.022 | 0.672 ± 0.04 |
| NYEITPYENVHV [TOS2 C-terminal 12 aa] | 0.682 ± 0.026 | 0.7131 ± 0.0041 |
| EEGPFKADHYRY [SAH1 C-terminal 12 aa] | 0.701 ± 0.011 | 0.694 ± 0.033 |
| NCANCVYFSSRG [YDL221W C-terminal 12 aa] | 0.7169 ± 0.0029 | 0.716 ± 0.043 |
| RVAVIEDDEDED [LEO1 C-terminal 12 aa] | 0.688 ± 0.0068 | 0.692 ± 0.021 |
| IELQLTEIPKHK [FIN1 C-terminal 12 aa] | 0.701 ± 0.022 | 0.727 ± 0.085 |
| LNFYNDNFGSQF [STP1 C-terminal 12 aa] | 0.723 ± 0.0098 | 0.71 ± 0.048 |
| MTQWLEISILMN [YCL001W-A C-terminal 12 aa] | 0.544 ± 0.05 | 0.319 ± 0.034 |
| KARPFKCSDKKQ [MZM1 C-terminal 12 aa] | 0.718 ± 0.016 | 0.72792 ± 0.00048 |
| ISIALEGHTLFL [PDE1 C-terminal 12 aa] | 0.715 ± 0.02 | 0.70608 ± 0.00038 |
| LKLNHSFATIFK [MCM21 C-terminal 12 aa] | 0.684 ± 0.018 | 0.677 ± 0.024 |
| VFTPFLFGELIG [ERG1 C-terminal 12 aa] | 0.718 ± 0.0073 | 0.712 ± 0.035 |
| KGDGKFWSSKKD [OM45 C-terminal 12 aa] | 0.709 ± 0.0022 | 0.6744 ± 0.0029 |
| KPRKKAKALPKT [RTT109 C-terminal 12 aa] | 0.689 ± 0.032 | 0.737 ± 0.014 |
| HTMENIFAGKLD [CUE4 C-terminal 12 aa] | 0.7177 ± 0.0019 | 0.69 ± 0.011 |

| Sequence | protein stability index [1] | protein stability index (genetic background: wild type) |
| --- | --- | --- |
| GVFEADGLEAVH [YLR235C C-terminal 12 aa] | 0.717 ± 0.029 | 0.7688 ± 0.0057 |
| RVKILHRDDTKK [UPF3 C-terminal 12 aa] | 0.707 ± 0.024 | 0.732 ± 0.093 |
| TIHTEVNIGIKQ [ENA1 C-terminal 12 aa] | 0.7199 ± 0.0013 | 0.736 ± 0.027 |
| MFNQGKVEEMDF [SML1 C-terminal 12 aa] | 0.7189 ± 0.0047 | 0.692 ± 0.017 |
| FVDDNTPLEHVC [YDL086W C-terminal 12 aa] | 0.706 ± 0.011 | 0.7331 ± 0.0011 |
| MLYTSYQSIFGV [AVT4 C-terminal 12 aa] | 0.707 ± 0.015 | 0.706 ± 0.0086 |
| YHAVDSTMSPKN [OST4 C-terminal 12 aa] | 0.693 ± 0.019 | 0.719 ± 0.047 |
| ITKSSNKFVNNV [YNL043C C-terminal 12 aa] | 0.665 ± 0.022 | 0.736 ± 0.091 |
| GEGGHFVIKKIS [DIT1 C-terminal 12 aa] | 0.6854 ± 0.0056 | 0.20324 ± 5.1e-05 |
| MKFNVISFLFHK [NAM2 C-terminal 12 aa] | 0.688 ± 0.011 | 0.615 ± 0.011 |
| NVGYMHTQPQQR [TCO89 C-terminal 12 aa] | 0.71 ± 0.0077 | 0.67 ± 0.016 |
| SKILFLCQINIS [YNR042W C-terminal 12 aa] | 0.312 ± 0.03 | 0.313 ± 0.015 |
| HNGKNKNRNSKK [MPP6 C-terminal 12 aa] | 0.691 ± 0.03 | 0.669 ± 0.016 |
| HFASSLVSFLSK [ICT1 C-terminal 12 aa] | 0.727 ± 0.028 | 0.7183 ± 0.0037 |
| LRASGDDSDPAY [PFA5 C-terminal 12 aa] | 0.7076 ± 0.0054 | 0.687 ± 0.014 |
| FVDYKTHPVGAN [RGI1 C-terminal 12 aa] | 0.709 ± 0.01 | 0.7141 ± 0.0028 |
| INILPVRKKKKV [SAS4 C-terminal 12 aa] | 0.705 ± 0.024 | 0.685 ± 0.036 |
| VSGFYDHDINGY [APJ1 C-terminal 12 aa] | 0.7529 ± 0.0033 | 0.722 ± 0.0078 |
| LATWDKQGNLKY [SRN2 C-terminal 12 aa] | 0.724 ± 0.012 | 0.696 ± 0.026 |
